The values that follow come from the NTF2 design screens of Basanta et al. (2020).

This series is described as follows: protease stability score; higher = more stable; yeast display proteolysis, trypsin and chymotrypsin.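 Note: log10 excess protease needed over predicted unfolded state with 0 meaning unfolded.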

“DDERRARDLFKEHEDNWKNGNHEELVKQADEDARVDVGDKELHGRDDLRRENRRIVEQADHIRFDLKSLDVQGDKVTFDFVVKVDINGRTETRRVQEKFVVTNGRIRLKEATEG” displayed a protease stability score of -0.009. To “DDERRKKQVDTFNKAFEKGDESQIRKLFDKDAKARVGDKHYHGKEQVARMVKTFVHQVDHMQFKSVRVQGDKVRADVTVKVNGNTARFTIEIRIHNGKIQHASIDPRNMEKMKR” belongs -0.073. In the case of “DDERVQEQAKDFLKVVKEGNEEDLTKLFDPNASARYGDKTYHGREKVATAVAELAKKVDHFRVEHVEASGNKLHIDAYFQVNGNRRRIRFFIEIRNGKINTVIITSG”, the protease stability score came out at 1.62. To “DDESRVRKMLEDMREQLQTGNPERVADMADPNVEVTVGDKTLRGREDLVKYWRSIAENVDRVDLKLRSLNISGDQISVDFVERNNDNGQTRKHDASARFQKDNGRILATHIHVQ” belongs 0.119; to “DDETAEKLAREFIEALKEGNEEQVRRLVDENVRVEVGDTTFHGREEAAKFAKEFKQHADHVEIRDVSVHGDKVELNLVLNVNGRERDVVVIVRVENGKIKEFQYREN”, 1.22; to “DDETLNELVETLMKAWNQGNPDDLNKLIDKDAKIIIGETHIHGRDEFRKWADTLHRQVDHYQFDSVTAHNGRVRMHMKLRVNGVNVVVHVKVQAHNGRIKRMRMRWRNEEDKKKVEQ”, 1.39.

The sequence “DDEVAEELRDIVHNGNWEEMSRNADKNAKVTIGDKQVHGRESAVRVLRIWQKQFDHIQIDRIDKHPGRVRWNARANVNGREVDYHARIHVKNGKVTDVTMEFTDPSQKRQFNRDLN” came in with a protease stability score of 0.205. In turn, “DDEVAKTIVKNWKTGDPDRLNEMFDPNARIRIGNQDVHGHEEVKKMLHKFFTAIDSIDIKRVSVHNGRIDIDVRAHFNGRSFRFVLHIVVEDGRVKHMEMKVTDPDSQRELEKHQK” showed a protease stability score of 1.35. Next, “DDEVFRRFQEALDIVKKGDPKKFEEMADPNARVKVGDKQLHGRETIAKDIADHMKEMKIEWRVKKLTTNEDHVNVTERWQQKHDGRPEDRERRARVRARGDKLKNHEVETDG”: 0.118; “DDEVKERVTQLLTAMLTNNPDKVQELIDPNAKVHVGDKRVQGEDDIKRVVEEENRQWRMRIKSVSVHVQGEKVRLDIEFVVHVNGEPQNDRVIMELTVHNGRVTDLQLQVDPRKLQERRN”: 0.966. To “DDEVKKEAEKMVEIIMHGDPDKVRNQFDPNAKMQIGDKELHGQEQLRDHLKRMNDHLRIDLKSVSARLDGNHIHLDVLFVKEHNGKPEEQRVEFVADIHNGKIVSASVEHVD” belongs 0.54; to “DDEVKKFAEKFVTNLENNNPQELKSMADPNAKFEVGNKSVHGMDEYVRQVRERNEHMRFDVKRVQIRVNGNQIIINVHLHVNVNGRPVDLSYEVDINFDNGKIKYVRLDVDEDQEKRMTG”, 1.1; to “DDEVLDDLVRLIKDNDWEQMANNADKDVKIQIGDKTWHGREQVEEVMRRMQETIDHLDIRSVTRHNGQVKVENRIEVNGQTIIYTVVFQAHNGRLKSMRVQATSHHAEDVMRQVIN”, 0.792. To “DDEVLDQVKEFLKAVKTGNDQQIKRLADKDVHFKIGDDVIDGREKVTKEWKQQHREMSVDYKKVKLQKRPNRAIVTYDVHYRHNGRPQSLKVQVRFTFDNGKLQSMSVTNSQ” belongs -0.006; to “DDEVNHNFEEMLKARESGDPDRLKELFRDDVRMQVGDKQVTGREKLAEHLVENMKHSQRTIRITDIKAHNGRLEVRLKFTEEHNGRPKTAEADVKAVVHNGKFVSMHVDQKR”, -0.523; to “DDEVQEVAEQWMRAFNTGDPDTFKDLLDKDVRVQYGDKRLSGKKTLANELQHQKEHQRFKVQHVDIKVTGNKAEINFTLVMDVNGKPVHYTVRANLDVHNGKVKEARFTMDPNTLSKMKR”, -0.24. Consider “DDEVRKVVHEWWKALRTGDPDLAKKLADPNAEFQIGDKRVHGMKDFARKLTEEHKESEIEINIRHIDAQGDNVNVHFEFQIDRNGRPQTNTQTVHLRVNNGKITRFEMRTQS”, for which the protease stability score was 1.16. To “DDEVVKEVNNALKTNDFKSMVDLADKNARIRVGNKTYRGREEVERFQTILHQRADHVQFRKIHVEGDTAVVDMVVVVNGHKLKYTVKIRVHNGKITSLRMQFTDESDERVMSKVLG” belongs 0.8; to “DDHAADVMRKWFEALSSGNPDQAKKNLDPNAKVQIGDKTLHGREQVSQHVREQKEEIRFEIQSVDVRKEPGQVTVTMVYVSHFNGQPRRDTDTFFADVHGDKIKSVHIRVDEKQKQRERD”, -0.495; to “DDHAERQARQVQTALKTGDPNQMERMFDENAEVVYGDKRIHGEHEASRVAKRIKEEMRVEYDVRRVTDNEDHVKFHAIIVIDENGKPRTKQLDLTMQQENGKVRLVSFRQDR”, -0.048. Next, “DDHAIRLLHEMIKAERTNDPDKLKEQMDPNAKIKYGDKTVHGRNDAVRYLEETVEHARVSIQVKSIKDQGDQAIADATITVNINGRPQQFKITIVAKFHNGRIKEVEIRVSEEQERQMES”: 0.785; “DDHALERLRSLNHIEDDGNEEKVEEMLDPNATVEVGDKRYHGSHHYVDHVRQRKEKQRYSQQFKHFHREPGRIVVHATAKFQVNGKPFKYTLTQVARLSNGKFTDIKVDVPERLKEQRQQ”: -0.258.

“DDHALRLVEEFLRAMRTGDEDKLKELVDPNARVTVGDHVWHGMESAAREWKRLKDEMRIKIDLQHVDDHGNSANAKASLAFRVNGKPQQNHMKMEVIFENGRIQSIVLRFSNEVEHNIKR”: the protease stability score came to 1.28. Next, “DDHAMRKFHELLKAIETGDEKKITDLADKHARFEYGDTEVHGRHKYAKEATDRRREMRIEIKDMKTRVDENHVQINNNYQVQVNGEPHTYTVQVVVRMDNGRLKQVQIRVSEEIRDRNKT”: -0.166.

As for “DDHANRVVEDVMQAWQDNDEDRLKELLDPNVKVEYGDRRVEGRDEAVREWVEQFRQSTIEYEIKSVNNSGDKVQINMDMRFESNGHPDENRVRLEASAHNGKIRELNFHTDQ”, the protease stability score was determined as 0.589. To “DDHAQRHLKELLKVINTGDEEEVEHMADPNARIQVGDKVFHGMRSYVDDIRRKKEELNVEYNVRRMDADGNRVEANVDVVFNHNGKPDRRTVDMKATIRNGKIKSMHWQENP” belongs -0.227; to “DDHAVRLLNDIVRALNSGDEQKVADNADPNVRIEYGDSVITGRERLMEEIQKRRKELRFEVQVDRVREKPNHVVADVQLHFNVNGQPRNMKVEVRATWTNGKLKHMHIKMDEEQVRQLKR”, 1.1; to “DDHAVRMAKTYQKAIQHNDPDKMVDLVDPNAKIHIGDKDIQGREELRRWVKHRIDDINIIIERVSATDKGDKAIVTVDLVENENGRPHNVRFEVTFDFKNGRAQRVTVQESR”, -0.088. Next, “DDHAVSFVEEMLRIEKTGNHQQLENKADPNAEAEYGDKTYHGMEDFARELVRQLREWRLDYKSIDVQAHNGRAEVDVDVLVDIDGEPVRFRVTIVFQQHNGRLKNQSMRMSTDQLRKQQR”: 0.121; “DDHDAKRAAKHVENGDPEQITNLFDEDARVHIGDFRIHGREDAKKWADHYRDQVDHLEYEDYRISGDTVVIVFQINVNGKRVRLRLEFRVHNGRIKEMTVEFTSEDDEKRVLKIMS”: 0.531.

As to “DDHDRLRKFFETLLKNYQHNNEEHATKMADKDARFDVGDKTVNGNKQNAKEMAERVRESDHYHAKIQSYRVEGDKAHFQFVASVVHNGRERHFKVQMELKLHNGSLKIVRLRNS”, the protease stability score came out at 0.966. Next, “DDHDRQKLSEWYKNYESGDPDKLVDMADPNARFQYGDKHVRGREQIHRQWRKELTEQRFTVVKMSASDHNGVIDMKFTNEVEHNGRPDRRKFSFTFRVRNGQAQEFDLQTTK”: 0.014; “DDHEEASELIRDLNEAWKEGDPDRASKNFDPNARIEVGDRTFRGQEQVKRMADELKEKYDEFTVDIKRLSLHNGSITVNARVVYHNNGRRHDRTYVVILHKHNGRIKIKNMHEQ”: 0.331.
